Assay in all cases: SEC; Superdex-200 on FPLC after TEV removal of the MBP tag; 20 mM NaH2PO4 pH 7.0, 0.3 M NaCl, 1 mM TCEP, 10% glycerol, 0.005% FC-16; 4 °C; mass by regression against gel filtration standards (Bio-Rad); self-association, oligomer size
(Size exclusion chromatography separates by hydrodynamic size, large species first.)

The target in test [1] is Bambusa oldhamii cellulose synthase BoCesA1 (Bambusa oldhamii).
Test [2] deals with Bambusa oldhamii cellulose synthase BoCesA2 (Bambusa oldhamii).
Test [3] concerns the target Bambusa oldhamii cellulose synthase BoCesA3 (Bambusa oldhamii).
Test [4] deals with Bambusa oldhamii cellulose synthase BoCesA4 (Bambusa oldhamii).
Test [5] deals with Bambusa oldhamii cellulose synthase BoCesA5 (Bambusa oldhamii).
The target of test [6] is Bambusa oldhamii cellulose synthase BoCesA7 (Bambusa oldhamii).

The term stoichiometry N denotes a count of units in the complex or per binding partner.

In test [1], “Bambusa oldhamii cellulose synthase BoCesA1 (enzyme)” showed a stoichiometry N of 6. As to “Bambusa oldhamii cellulose synthase BoCesA2 (enzyme)”, in test [2], the stoichiometry N is 6.

As for “Bambusa oldhamii cellulose synthase BoCesA3 (enzyme)”, the stoichiometry N in test [3] amounted to 6. Take “Bambusa oldhamii cellulose synthase BoCesA4 (enzyme)”: the stoichiometry N in test [4] turned out to be 6. Substance “Bambusa oldhamii cellulose synthase BoCesA5 (enzyme)” had a stoichiometry N in test [5] of 6. In test [6], “Bambusa oldhamii cellulose synthase BoCesA7 (enzyme)” returned a stoichiometry N of 6.

The values are drawn from publication PMC6657065.
